Primed or numbered codes have the meaning given here. Where no end group is shown, it is not given here. FITC′ = fluorescein isothiocyanate label
What was measured:
Experiment in all cases: fluorescence polarisation; FITC-labeled PhoP1C14 peptide (50 nM) mixed with 0-160 µM of the complex of each PhoEF1A mutant, GTP and PfuPelota; 20 mM HEPES-KOH pH 7.6, 10 mM MgCl2, 150 mM KCl, 0.1 mg/ml BSA; 25 °C; nonlinear regression, one site specific binding (GraphPad Prism 6); average of three replicates
Conditions in all cases: both partners purified
[1] = target: T1, PhoEF1A R132A•GTP•PfuPelota complex (Pyrococcus horikoshii | Pyrococcus …, UniProt O59153 1-428, R132A)
T1 construct: elongation factor aEF1A of Pyrococcus horikoshii (PhoEF1A); complex of the EF1A mutant, GTP and PfuPelota; also called R132(R140)A; P. horikoshii aEF1A-R132A
T1 sequence 1: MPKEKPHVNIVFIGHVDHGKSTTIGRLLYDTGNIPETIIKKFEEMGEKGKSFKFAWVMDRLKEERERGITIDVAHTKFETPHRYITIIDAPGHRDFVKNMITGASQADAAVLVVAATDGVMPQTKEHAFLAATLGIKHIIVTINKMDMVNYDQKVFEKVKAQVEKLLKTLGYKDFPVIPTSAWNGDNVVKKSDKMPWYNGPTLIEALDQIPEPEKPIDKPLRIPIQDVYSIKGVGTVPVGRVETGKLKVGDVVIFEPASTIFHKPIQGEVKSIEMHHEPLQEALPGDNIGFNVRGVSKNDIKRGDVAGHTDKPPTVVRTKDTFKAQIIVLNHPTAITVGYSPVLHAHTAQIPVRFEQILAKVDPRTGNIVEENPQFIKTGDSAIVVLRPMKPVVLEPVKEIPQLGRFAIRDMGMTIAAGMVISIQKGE
T1 sequence 2: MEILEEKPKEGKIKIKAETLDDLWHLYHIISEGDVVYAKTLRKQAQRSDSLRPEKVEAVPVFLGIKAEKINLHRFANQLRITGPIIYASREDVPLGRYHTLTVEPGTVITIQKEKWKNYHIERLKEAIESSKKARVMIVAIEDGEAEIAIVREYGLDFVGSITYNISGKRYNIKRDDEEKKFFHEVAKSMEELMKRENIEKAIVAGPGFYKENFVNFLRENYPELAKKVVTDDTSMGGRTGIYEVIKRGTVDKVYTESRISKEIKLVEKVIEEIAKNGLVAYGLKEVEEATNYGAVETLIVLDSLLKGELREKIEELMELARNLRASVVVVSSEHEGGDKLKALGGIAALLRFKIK

[2] = target: T2, PhoEF1A I328S•GTP•PfuPelota complex (Pyrococcus horikoshii | Pyrococcus …, UniProt O59153 1-428, I328S)
T2 construct: elongation factor aEF1A of Pyrococcus horikoshii (PhoEF1A); complex of the EF1A mutant, GTP and PfuPelota; also called I328(F331)S; P. horikoshii aEF1A-I328S
T2 sequence 1: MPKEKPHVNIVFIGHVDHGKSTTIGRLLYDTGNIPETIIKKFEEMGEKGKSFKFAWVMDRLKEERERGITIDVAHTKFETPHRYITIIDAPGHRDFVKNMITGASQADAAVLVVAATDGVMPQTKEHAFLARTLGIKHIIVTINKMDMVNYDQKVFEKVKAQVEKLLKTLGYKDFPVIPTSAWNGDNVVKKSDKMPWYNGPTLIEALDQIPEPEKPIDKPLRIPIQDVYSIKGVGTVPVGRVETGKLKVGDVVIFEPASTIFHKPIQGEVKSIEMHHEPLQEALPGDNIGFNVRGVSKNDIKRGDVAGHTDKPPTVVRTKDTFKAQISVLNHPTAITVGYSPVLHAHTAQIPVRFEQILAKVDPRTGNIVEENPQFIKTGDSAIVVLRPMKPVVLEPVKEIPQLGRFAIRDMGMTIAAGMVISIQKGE
T2 sequence 2: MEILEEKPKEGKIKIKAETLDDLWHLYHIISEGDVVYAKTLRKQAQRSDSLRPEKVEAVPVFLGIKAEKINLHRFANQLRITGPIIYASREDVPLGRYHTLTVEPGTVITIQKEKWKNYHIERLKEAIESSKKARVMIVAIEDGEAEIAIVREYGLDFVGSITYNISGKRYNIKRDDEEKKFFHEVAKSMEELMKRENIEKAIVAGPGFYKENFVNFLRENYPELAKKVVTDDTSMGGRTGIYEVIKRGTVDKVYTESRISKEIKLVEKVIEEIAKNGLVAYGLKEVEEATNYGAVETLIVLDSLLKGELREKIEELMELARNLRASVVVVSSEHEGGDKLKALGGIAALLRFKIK

[3] = target: T3, PhoEF1A V398S•GTP•PfuPelota complex (Pyrococcus horikoshii | Pyrococcus …, UniProt O59153 1-428, V398S)
T3 construct: elongation factor aEF1A of Pyrococcus horikoshii (PhoEF1A); complex of the EF1A mutant, GTP and PfuPelota; also called V398(F401)S; P. horikoshii aEF1A-V398S
T3 sequence 1: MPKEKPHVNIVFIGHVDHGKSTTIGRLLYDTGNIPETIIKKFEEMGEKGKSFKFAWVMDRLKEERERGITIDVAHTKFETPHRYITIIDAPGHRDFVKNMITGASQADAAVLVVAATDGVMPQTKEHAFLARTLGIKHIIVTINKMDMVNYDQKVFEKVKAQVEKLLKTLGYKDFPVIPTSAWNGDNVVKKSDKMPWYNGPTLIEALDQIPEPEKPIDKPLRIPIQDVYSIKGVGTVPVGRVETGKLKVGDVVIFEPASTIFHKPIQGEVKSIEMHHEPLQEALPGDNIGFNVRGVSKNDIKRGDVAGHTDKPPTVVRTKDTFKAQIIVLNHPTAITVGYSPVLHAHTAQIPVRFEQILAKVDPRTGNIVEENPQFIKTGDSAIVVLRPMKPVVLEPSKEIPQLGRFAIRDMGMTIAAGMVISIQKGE
T3 sequence 2: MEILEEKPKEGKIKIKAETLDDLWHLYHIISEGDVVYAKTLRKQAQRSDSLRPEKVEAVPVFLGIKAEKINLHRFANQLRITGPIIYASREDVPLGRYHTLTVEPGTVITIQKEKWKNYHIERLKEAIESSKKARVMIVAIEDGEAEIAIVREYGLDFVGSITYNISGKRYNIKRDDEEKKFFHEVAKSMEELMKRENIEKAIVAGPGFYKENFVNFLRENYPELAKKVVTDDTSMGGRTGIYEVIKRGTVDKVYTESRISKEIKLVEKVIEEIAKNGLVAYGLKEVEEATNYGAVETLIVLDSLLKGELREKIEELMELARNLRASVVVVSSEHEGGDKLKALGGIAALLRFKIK

B1: FITC-labeled C-terminal 14-mer peptide of P. horikoshii aP1 (PhoP1C14) (peptide)
peptide: {FITC′}-SEEEALAGLSALFG
notes: also called FITC-labeled peptide of PhoP1C14; source: synthetic peptide (Hokkaido System Science Co., Ltd)
For B1, which Kd [1] is on record?
The Kd was 87.8 ± 12 µM.

And the Kd [2]?
Its Kd is 93.3 ± 10.2 µM.

What about the Kd [3] of the same binder?
Its Kd is 38.3 ± 2.8 µM.
